Laboratory results published in paper PMC7755396 (eLife, 2020).

Tests used:
Conditions in all cases: both partners purified
[1] = molecular target: T1, Puumala virus (Gn−Gc)4 glycoprotein spike on virus-like particles (Puumala orthohantavirus, strain …, UniProt P27312); assay: cryo-EM structure
T1 construct: copies: 4 + 4

[2] = molecular target: T2, Puumala virus Gc as displayed on virus-like particles (Puumala orthohantavirus); assay: cryo-EM structure
T2 chain: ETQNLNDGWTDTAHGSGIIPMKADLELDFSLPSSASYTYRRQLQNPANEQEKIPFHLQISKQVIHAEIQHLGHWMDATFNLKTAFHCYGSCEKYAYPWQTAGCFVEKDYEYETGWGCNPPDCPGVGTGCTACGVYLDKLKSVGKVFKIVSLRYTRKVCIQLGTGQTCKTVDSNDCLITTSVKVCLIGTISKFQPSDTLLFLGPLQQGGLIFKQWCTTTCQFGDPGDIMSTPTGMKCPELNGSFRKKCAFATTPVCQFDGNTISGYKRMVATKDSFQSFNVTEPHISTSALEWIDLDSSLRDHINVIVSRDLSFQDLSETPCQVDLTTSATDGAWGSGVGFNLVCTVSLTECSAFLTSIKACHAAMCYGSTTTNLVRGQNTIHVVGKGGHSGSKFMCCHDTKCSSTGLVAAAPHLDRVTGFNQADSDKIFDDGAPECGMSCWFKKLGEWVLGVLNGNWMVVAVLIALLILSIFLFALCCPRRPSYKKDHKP

[3] = molecular target: Puumala virus (PUUV) Gc ectodomain, residues 659–1105 (Puumala orthohantavirus, GPC of GenBank …, UniProt Q9WJ31); assay: crystal structure

Measured: binding result

B1: Fab P-4G2 (antigen-binding fragment of mAb P-4G2) (Fab, V domains shown)
VH: QVQMKESGGGLVQPGKSLKLSCAASGFTFSDFWMSWVRQPSGKGLEWVARINTNGDTTHYTDDMKGRFTISRDNAKTTLYLEMSPLKSEDTAMYYCTRDRLGPFDYWGQGTTVTVSS
VL: DIVMTQSPAFPPVSLGDTVTITCQASQSVYKNLAWYQQKPGKSPRLLIFGMSSLADGVPSRFSASGSDKQYSLKIRGLQPEDAAIYYCQQHYIAPYTFGAGTRLEIK
notes: also called Fab 4G2
binds: all assays above
